This series relates to Escherichia coli TOP10. In words: shrunken log2 fold change of peptide-encoding DNA abundance (4.5 h post-induction vs induction); higher = less antimicrobial activity (less host growth inhibition). As to conditions: time post-induction: 4.5 h; library: site-saturation at positions 5, 18, 19, 20.
On to RRIRKRPPRLPRPRPRPPTKPRP, for which the “shrunken log2 fold change” value was found to be 0.12.
As for RRIRERPPRLPRPRPRPIWWPRP, the “shrunken log2 fold change” value is -0.0447.
For RRIRRRPPRLPRPRPRPIVVPRP, the “shrunken log2 fold change” value was found to be 0.115.
Turning to RRIRTRPPRLPRPRPRPIDKPRP, the “shrunken log2 fold change” value was -0.175.
In the case of RRIRERPPRLPRPRPRPQMEPRP, the “shrunken log2 fold change” value came to 0.00522.
On to RRIRARPPRLPRPRPRPDDFPRP, for which the “shrunken log2 fold change” value was -0.013.
With RRIRFRPPRLPRPRPRPFVPPRP, the “shrunken log2 fold change” value was -0.668.
As for RRIRGRPPRLPRPRPRPMGLPRP, the figure is -0.0139.
As for RRIRTRPPRLPRPRPRPTDNPRP, the “shrunken log2 fold change” value is -0.302.
Regarding RRIRGRPPRLPRPRPRPQDEPRP, the “shrunken log2 fold change” value was determined as 0.111.
Regarding RRIRPRPPRLPRPRPRPAKNPRP, the “shrunken log2 fold change” value was found to be 0.235.
The value for RRIRFRPPRLPRPRPRPWEIPRP was -0.0062.
For the sequence RRIRKRPPRLPRPRPRPPDTPRP, the “shrunken log2 fold change” value came to 0.896.
Turning to RRIRYRPPRLPRPRPRPLYHPRP, the “shrunken log2 fold change” value is -1.11.
On to RRIRCRPPRLPRPRPRPMQVPRP, for which the “shrunken log2 fold change” value was -0.0376.
Regarding RRIRTRPPRLPRPRPRPIKNPRP, the “shrunken log2 fold change” value was -0.185.
Turning to RRIRPRPPRLPRPRPRPMWFPRP, the “shrunken log2 fold change” value was -0.113.
For RRIRQRPPRLPRPRPRPWWNPRP, the “shrunken log2 fold change” value was -0.123.
The value for RRIRARPPRLPRPRPRPLIAPRP was 0.504; that for RRIRVRPPRLPRPRPRPQIGPRP was -0.273; that for RRIRPRPPRLPRPRPRPPYWPRP was -0.123.
The value for RRIRWRPPRLPRPRPRPFIFPRP was -0.0639; that for RRIRVRPPRLPRPRPRPPYCPRP was -0.0177; that for RRIRWRPPRLPRPRPRPHLAPRP was 0.265.
For the sequence RRIRWRPPRLPRPRPRPIWSPRP, the “shrunken log2 fold change” value came to 0.629.
As for RRIRKRPPRLPRPRPRPSQNPRP, the figure is 0.269; as for RRIRLRPPRLPRPRPRPGVVPRP, 0.27; as for RRIRSRPPRLPRPRPRPWAFPRP, -0.072.
With RRIRHRPPRLPRPRPRPEWYPRP, the “shrunken log2 fold change” value was 0.0294.
With RRIRDRPPRLPRPRPRPRLAPRP, the “shrunken log2 fold change” value was 0.686.
As to RRIRARPPRLPRPRPRPAEWPRP, the “shrunken log2 fold change” value was 0.245.
In the case of RRIRYRPPRLPRPRPRPTNFPRP, the “shrunken log2 fold change” value is -0.16.
As to RRIRFRPPRLPRPRPRPMSNPRP, the “shrunken log2 fold change” value is 0.0556.
The value for RRIRFRPPRLPRPRPRPFRTPRP was -0.444; that for RRIRFRPPRLPRPRPRPWGYPRP was -0.164.
For the sequence RRIRVRPPRLPRPRPRPHNDPRP, the “shrunken log2 fold change” value was -0.318.
With RRIRDRPPRLPRPRPRPSYFPRP, the “shrunken log2 fold change” value is -0.255.
The value for RRIRGRPPRLPRPRPRPDLEPRP was 0.288; that for RRIRFRPPRLPRPRPRPEFLPRP was 0.0354.
Turning to RRIRVRPPRLPRPRPRPETQPRP, the “shrunken log2 fold change” value amounted to 0.259.
Consider RRIRYRPPRLPRPRPRPWPWPRP, for which the “shrunken log2 fold change” value amounted to 0.0314.
As to RRIRIRPPRLPRPRPRPYCTPRP, the “shrunken log2 fold change” value is -0.215.
For the sequence RRIRDRPPRLPRPRPRPFKAPRP, the “shrunken log2 fold change” value is -0.334.
With RRIRERPPRLPRPRPRPKIWPRP, the “shrunken log2 fold change” value was found to be 0.0407.
Turning to RRIRKRPPRLPRPRPRPSHPPRP, the “shrunken log2 fold change” value amounted to 0.146.
The value for RRIRCRPPRLPRPRPRPKQVPRP was 0.44; that for RRIRHRPPRLPRPRPRPFNIPRP was 0.0518.
The value for RRIRWRPPRLPRPRPRPSDSPRP was -0.0671; that for RRIRKRPPRLPRPRPRPTDLPRP was 0.0464.
RRIRRRPPRLPRPRPRPMSRPRP: the “shrunken log2 fold change” value was -0.0357.

The values above are taken from the supplement of paper PMC9112550, “Optimization of the antimicrobial peptide Bac7 by deep mutational scanning” (BMC Biology, 2022).
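Also: peptides expressed intracellularly from a pBAD plasmid library in pooled LB shake-flask culture, induced with 0.3% L-arabinose, DNA abundance read by NGS, three biological replicates, DESeq2 with apeglm shrinkage.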
